We go through 1 molecule from US20140274782A1 (Stanford University, published 2014).

Assay [1] concerns the target T1, GHRL-ghrelin/obestatin preprohormone (GHRL) (human, UniProt Q9UBU3 1-117, limits assumed).
T1 sequence (looked up): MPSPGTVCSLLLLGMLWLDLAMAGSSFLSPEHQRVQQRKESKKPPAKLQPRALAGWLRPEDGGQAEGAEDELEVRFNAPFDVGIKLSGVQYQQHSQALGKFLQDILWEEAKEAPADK
Description: ProtoArray, GST-treated control array.
Description: (§1) Briefly, a ProtoArray (Invitrogen, version 5.0) was incubated overnight with 50 μg of GST or recombinant GSTtagged G9a SET domain and the cofactor SAM.
(§2) Arrays were analyzed using GenePix Pro 6.1 software (Molecular Devices) and feature values were assigned to proteins using the array list provided by Invitrogen. We designated the following criteria for “hits”: GST array signal-to-noise ratio (SNR) less than or equal to 1.5, G9a array SNR greater than or equal to 10, and a difference between the G9a array SNR and the GST array SNR of greater than or equal to 12. Hits were individually visually validated. Proteins were removed from the list of potential substrates if irregular array features appeared to interfere with the array spots or SNR calculations.

Assay [2] has as its target T2, GAL-galanin prepropeptide (GAL) (human, UniProt P22466 1-123, limits assumed).
T2 sequence (looked up): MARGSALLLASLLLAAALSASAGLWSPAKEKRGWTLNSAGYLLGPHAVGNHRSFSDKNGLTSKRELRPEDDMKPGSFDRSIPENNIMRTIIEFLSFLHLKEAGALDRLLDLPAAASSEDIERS
The assay can be described thus: ProtoArray, GST-treated control array.
Description: as §1, §2

The target in assay [3] is T3, RAB33B-RAB33B, member RAS oncogene family (RAB33B) (human, UniProt Q9H082 1-229).
T3 sequence (looked up): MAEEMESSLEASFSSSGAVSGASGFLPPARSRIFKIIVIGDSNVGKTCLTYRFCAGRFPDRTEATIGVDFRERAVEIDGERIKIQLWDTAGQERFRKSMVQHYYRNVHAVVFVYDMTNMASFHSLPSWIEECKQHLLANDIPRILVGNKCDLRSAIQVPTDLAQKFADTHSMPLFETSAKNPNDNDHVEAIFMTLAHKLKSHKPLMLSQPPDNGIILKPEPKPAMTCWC
The assay can be described thus: ProtoArray, GST-treated control array.

Assay [4] addresses KRR1-KRR1, small subunit (SSU) processome component, homolog (yeast) (KRR1) (human, UniProt Q13601 1-381, limits assumed). The assay can be described thus: ProtoArray, GST-treated control array.
For assay [5], the target named is C10orf83-chromosome 10 open reading frame 83 (C10orf83) (human, UniProt Q8NDC4 1-146, limits assumed). The assay can be described thus: ProtoArray, GST-treated control array.
C10orf83-chromosome 10 open reading frame 83 (C10orf83), sequence (Q8NDC4 whole entry): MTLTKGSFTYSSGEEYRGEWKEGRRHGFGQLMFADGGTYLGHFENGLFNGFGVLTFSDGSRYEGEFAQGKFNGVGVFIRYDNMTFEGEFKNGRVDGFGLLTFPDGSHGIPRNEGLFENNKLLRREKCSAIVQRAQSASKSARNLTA
Assay [6] deals with ARL6IP1-ADP-ribosylation factor-like 6 interacting protein 1 (ARL6IP1) (human, UniProt Q15041 1-203, limits assumed). The assay can be described thus: ProtoArray, GST-treated control array.
ARL6IP1-ADP-ribosylation factor-like 6 interacting protein 1 (ARL6IP1), sequence (Q15041 whole entry): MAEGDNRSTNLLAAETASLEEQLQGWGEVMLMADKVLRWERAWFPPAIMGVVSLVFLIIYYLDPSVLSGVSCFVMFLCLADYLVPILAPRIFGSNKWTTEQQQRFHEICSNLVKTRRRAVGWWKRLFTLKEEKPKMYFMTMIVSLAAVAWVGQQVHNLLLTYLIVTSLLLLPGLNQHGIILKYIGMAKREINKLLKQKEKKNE
Assay [7] deals with T4, CAB39L-Calcium-binding protein 39-like (human, UniProt Q9H9S4 1-337).
T4 sequence (looked up): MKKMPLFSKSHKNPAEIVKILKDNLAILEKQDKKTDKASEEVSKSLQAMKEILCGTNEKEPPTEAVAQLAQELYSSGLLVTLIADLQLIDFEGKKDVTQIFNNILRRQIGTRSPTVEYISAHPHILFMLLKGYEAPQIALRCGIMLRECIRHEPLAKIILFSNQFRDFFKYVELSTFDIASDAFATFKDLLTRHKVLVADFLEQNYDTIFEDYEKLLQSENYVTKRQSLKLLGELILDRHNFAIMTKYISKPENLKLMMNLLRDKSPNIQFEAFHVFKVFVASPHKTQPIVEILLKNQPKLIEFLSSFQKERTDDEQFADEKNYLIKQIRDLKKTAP
The assay can be described thus: ProtoArray, GST-treated control array.

For assay [8], the target named is T5, CD79A-B-cell antigen receptor complex-associated protein alpha-chain (human, UniProt P11912 33-226, limits assumed).
T5 sequence (looked up): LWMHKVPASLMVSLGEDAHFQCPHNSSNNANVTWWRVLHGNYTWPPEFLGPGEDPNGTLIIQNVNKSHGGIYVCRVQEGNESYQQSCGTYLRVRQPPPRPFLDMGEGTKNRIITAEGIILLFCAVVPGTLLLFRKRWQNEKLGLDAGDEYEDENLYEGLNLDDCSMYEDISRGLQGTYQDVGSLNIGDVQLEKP
Description: ProtoArray, GST-treated control array.

In assay [9] the target is LOC400500-PREDICTED: Homo sapiens hypothetical LOC400500 (LOC400500) (human). Description: ProtoArray, GST-treated control array.
The next assay addresses SCGB2A2-Mammaglobin-A (human, UniProt Q13296 19-93, limits assumed). Description: ProtoArray, GST-treated control array.
The target of assay [10] is T6, BLCAP-bladder cancer associated protein (BLCAP) (human, UniProt P62952 1-87).
T6 sequence (looked up): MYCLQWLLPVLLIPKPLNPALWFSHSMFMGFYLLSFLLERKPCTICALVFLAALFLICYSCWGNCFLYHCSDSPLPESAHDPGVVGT
Description: ProtoArray, GST-treated control array.

Assay [11] has as its target T7, RAB7B-RAB7B, member RAS oncogene family (RAB7B) (human, UniProt Q96AH8 1-199).
T7 sequence (looked up): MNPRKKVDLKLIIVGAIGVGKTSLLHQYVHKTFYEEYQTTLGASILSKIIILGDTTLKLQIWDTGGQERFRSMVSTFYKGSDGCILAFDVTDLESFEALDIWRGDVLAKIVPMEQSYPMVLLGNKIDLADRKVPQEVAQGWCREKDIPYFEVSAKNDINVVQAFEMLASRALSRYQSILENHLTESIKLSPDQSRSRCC
The assay can be described thus: ProtoArray, GST-treated control array.

The target in assay [12] is T8, RDH11-retinol dehydrogenase 11 (all-trans/9-cis/11-cis) (RDH11) (human, UniProt Q8TC12 1-318, limits assumed).
T8 sequence (looked up): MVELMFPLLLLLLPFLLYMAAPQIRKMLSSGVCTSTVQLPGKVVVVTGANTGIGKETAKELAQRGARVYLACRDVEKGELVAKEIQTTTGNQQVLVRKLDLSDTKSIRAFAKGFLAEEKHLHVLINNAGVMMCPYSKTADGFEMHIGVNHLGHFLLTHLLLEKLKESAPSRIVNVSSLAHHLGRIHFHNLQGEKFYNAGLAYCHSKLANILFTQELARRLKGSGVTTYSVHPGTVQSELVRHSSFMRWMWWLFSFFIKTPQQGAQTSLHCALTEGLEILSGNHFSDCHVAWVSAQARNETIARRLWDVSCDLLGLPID
Description: ProtoArray, GST-treated control array.

Assay [13] addresses PSMA8-proteasome (prosome, macropain) subunit, alpha type, 8 (PSMA8) (human, UniProt Q8TAA3 1-256, limits assumed). The assay can be described thus: ProtoArray, GST-treated control array.
The target in assay [14] is LOC400500, G9a-methylated (human). Description: ProtoArray methylated with G9a SET domain.
Description: as §1, §2
(§3) Protein arrays bearing almost 9500 recombinant human proteins were methylated using GST-tagged recombinant G9a SET domain or GST alone as a control as shown in FIG. 4. […] Results were filtered for proteins scoring a GST array signal-to-noise ratio (SNR) less than or equal to 1.5, a G9a array SNR greater to or equal to 10, and a difference between the G9a and GST SNRs of greater than or equal to 12. Subsequent proteins were individually inspected for irregular array features.
Assay [15] addresses LOC145788, G9a-methylated (human). The assay can be described thus: ProtoArray methylated with G9a SET domain.
Description: as §1, §2, §3
For assay [16], the target named is cDNA clone IMAGE:4623222 product, G9a-methylated (human). The assay can be described thus: ProtoArray methylated with G9a SET domain.
Description: as §1, §2, §3
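Throughout, for GST Average SNR: human protein microarray (about 9500 recombinant proteins) incubated overnight with GST alone plus SAM cofactor as the negative control for G9a SET domain methylation.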

KRR1-KRR1, small subunit (SSU) processome component, homolog (yeast) (KRR1), sequence (Q13601 whole entry): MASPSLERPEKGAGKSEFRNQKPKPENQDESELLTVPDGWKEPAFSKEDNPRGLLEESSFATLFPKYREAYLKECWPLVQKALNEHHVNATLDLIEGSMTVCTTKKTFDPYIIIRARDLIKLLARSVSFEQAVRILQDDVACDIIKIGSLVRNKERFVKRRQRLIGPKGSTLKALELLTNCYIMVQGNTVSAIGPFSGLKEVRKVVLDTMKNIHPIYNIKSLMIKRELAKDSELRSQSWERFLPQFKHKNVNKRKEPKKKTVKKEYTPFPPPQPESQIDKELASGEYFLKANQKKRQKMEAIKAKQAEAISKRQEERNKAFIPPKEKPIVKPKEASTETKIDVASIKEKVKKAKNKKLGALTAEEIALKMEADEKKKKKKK
PSMA8-proteasome (prosome, macropain) subunit, alpha type, 8 (PSMA8), sequence (Q8TAA3 whole entry, the tested form may be a part): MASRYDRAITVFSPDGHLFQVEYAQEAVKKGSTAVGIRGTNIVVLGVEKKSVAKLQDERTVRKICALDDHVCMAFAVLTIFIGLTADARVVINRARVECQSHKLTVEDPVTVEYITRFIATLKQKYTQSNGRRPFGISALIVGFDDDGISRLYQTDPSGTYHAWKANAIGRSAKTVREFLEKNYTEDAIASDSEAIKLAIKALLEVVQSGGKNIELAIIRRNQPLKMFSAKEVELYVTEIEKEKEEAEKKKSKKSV
SCGB2A2-Mammaglobin-A, sequence (Q13296 19-93 limits assumed): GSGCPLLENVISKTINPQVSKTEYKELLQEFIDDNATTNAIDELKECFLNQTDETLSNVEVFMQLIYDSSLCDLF

B1: 3× Flag-3×MBT (designed binder)
chain: EEWSSSQPATGEKKECWSWESYLEEQKAITAPVSLFQDSQAVTHNKNGFKLGMKLEGIDPQHPSMYFILTVAEVCGYRLRLHFDGYSECHDFWVNANSPDIHPAGWFEKTGHKLQPPKGYKEEEFSWSQYLRSTRAQAAPKHLFVSQSHSPPPLGFQVGMKLEAVDRMNPSLVCVASVTDVVDSRFLVHFDNWDDTYDYWCDPSSPYIHPVGWCQKQGKPLTPPQDYPDPDNFCWEKYLEETGASAVPTWAFKVRPPHSFLVNMKLEAVDRRNPALIRVASVEDVEDHRIKIHFDGWSHGYDFWIDADHPDIHPAGWCSKTGHPLQPPLGPREPSSASPGG
notes: also called Flag-tagged 3×MBT; 3xFlag-3xMBT; not shown: made by PreScission cleavage of GST-3× Flag-3×MBT
With B1, the binding result in assay [1] and in [2] was “no binding (tested: GST array SNR <= 1.5)” throughout. The “GST Average SNR” value in assay [3] was 0.0035; in assay [4] it was 0.566; in [5], 0.742; in [6], 1.05; in assay [7], 0.182; in [8] it was -0.746. In addition, the “GST Average SNR” value in [9] was -0.119; with SCGB2A2-Mammaglobin-A, 0.983; in [10], 0.932; in assay [11], -0.309; in assay [12] it was 0.0685; in assay [13] it was -0.846. Also, the “G9a Average SNR” value in assay [14] stood at 29; in [15], 14.1; in [16], 18.8.
